Measurements taken from the Human Domainome abundance scans (Beltran et al. 2025).
± gives the uncertainty stated by the source.

B1: Mineralocorticoid receptor, residues 600 to 675; numbered along this chain, P08235 (parent)
chain: SKICLVCGDEASGCHYGVVTCGSCKVFFKRAVEGQHNYLCAGRNDCIIDKIRRKNCPACRLQKCLQAGMNLGARKS

Variants of: B1
Experiment: abundance fitness (aPCA) (normalised: wild type 0, dead -1); higher = more abundant; growth selection in yeast, the domain comes from the species named
Conditions: Homo sapiens

| Variant | abundance fitness |
| --- | --- |
| SKICLVCGYEASGCHYGVVTCGSCKVFFKRAVEGQHNYLCAGRNDCIIDKIRRKNCPACRLQKCLQAGMNLGARKS | -0.161 ± 0.092 |
| SKICLVCGGEASGCHYGVVTCGSCKVFFKRAVEGQHNYLCAGRNDCIIDKIRRKNCPACRLQKCLQAGMNLGARKS | -0.053 ± 0.042 |
| SKICLVCGEEASGCHYGVVTCGSCKVFFKRAVEGQHNYLCAGRNDCIIDKIRRKNCPACRLQKCLQAGMNLGARKS | -0.096 ± 0.056 |
| SKICLVCGWEASGCHYGVVTCGSCKVFFKRAVEGQHNYLCAGRNDCIIDKIRRKNCPACRLQKCLQAGMNLGARKS | -0.214 ± 0.05 |
| SKICLVCGSEASGCHYGVVTCGSCKVFFKRAVEGQHNYLCAGRNDCIIDKIRRKNCPACRLQKCLQAGMNLGARKS | -0.102 ± 0.053 |
| SKICLVCGQEASGCHYGVVTCGSCKVFFKRAVEGQHNYLCAGRNDCIIDKIRRKNCPACRLQKCLQAGMNLGARKS | -0.092 ± 0.072 |
| SKICLVCGVEASGCHYGVVTCGSCKVFFKRAVEGQHNYLCAGRNDCIIDKIRRKNCPACRLQKCLQAGMNLGARKS | -0.001 ± 0.042 |
| SKICLVCGLEASGCHYGVVTCGSCKVFFKRAVEGQHNYLCAGRNDCIIDKIRRKNCPACRLQKCLQAGMNLGARKS | -0.309 ± 0.05 |
| SKICLVCGIEASGCHYGVVTCGSCKVFFKRAVEGQHNYLCAGRNDCIIDKIRRKNCPACRLQKCLQAGMNLGARKS | -0.168 ± 0.15 |
| SKICLVCGKEASGCHYGVVTCGSCKVFFKRAVEGQHNYLCAGRNDCIIDKIRRKNCPACRLQKCLQAGMNLGARKS | -0.231 ± 0.078 |
| SKICLVCGCEASGCHYGVVTCGSCKVFFKRAVEGQHNYLCAGRNDCIIDKIRRKNCPACRLQKCLQAGMNLGARKS | -0.137 ± 0.084 |
| SKICLVCGHEASGCHYGVVTCGSCKVFFKRAVEGQHNYLCAGRNDCIIDKIRRKNCPACRLQKCLQAGMNLGARKS | -0.04 ± 0.13 |
| SKICLVCGNEASGCHYGVVTCGSCKVFFKRAVEGQHNYLCAGRNDCIIDKIRRKNCPACRLQKCLQAGMNLGARKS | -0.144 ± 0.1 |
| SKICLVCGTEASGCHYGVVTCGSCKVFFKRAVEGQHNYLCAGRNDCIIDKIRRKNCPACRLQKCLQAGMNLGARKS | -0.082 ± 0.058 |
| SKICLVCGFEASGCHYGVVTCGSCKVFFKRAVEGQHNYLCAGRNDCIIDKIRRKNCPACRLQKCLQAGMNLGARKS | -0.202 ± 0.1 |
| SKICLVCGREASGCHYGVVTCGSCKVFFKRAVEGQHNYLCAGRNDCIIDKIRRKNCPACRLQKCLQAGMNLGARKS | -0.183 ± 0.042 |
| SKICLVCGAEASGCHYGVVTCGSCKVFFKRAVEGQHNYLCAGRNDCIIDKIRRKNCPACRLQKCLQAGMNLGARKS | 0.048 ± 0.049 |
| SKICLVCGDPASGCHYGVVTCGSCKVFFKRAVEGQHNYLCAGRNDCIIDKIRRKNCPACRLQKCLQAGMNLGARKS | -0.108 ± 0.071 |

| Variant | abundance fitness |
| --- | --- |
| SKICLVCGDQASGCHYGVVTCGSCKVFFKRAVEGQHNYLCAGRNDCIIDKIRRKNCPACRLQKCLQAGMNLGARKS | 0.071 ± 0.054 |
| SKICLVCGDRASGCHYGVVTCGSCKVFFKRAVEGQHNYLCAGRNDCIIDKIRRKNCPACRLQKCLQAGMNLGARKS | -0.1 ± 0.044 |
| SKICLVCGDNASGCHYGVVTCGSCKVFFKRAVEGQHNYLCAGRNDCIIDKIRRKNCPACRLQKCLQAGMNLGARKS | -0.04 ± 0.12 |
| SKICLVCGDHASGCHYGVVTCGSCKVFFKRAVEGQHNYLCAGRNDCIIDKIRRKNCPACRLQKCLQAGMNLGARKS | 0.078 ± 0.13 |
| SKICLVCGDVASGCHYGVVTCGSCKVFFKRAVEGQHNYLCAGRNDCIIDKIRRKNCPACRLQKCLQAGMNLGARKS | -0.04 ± 0.044 |
| SKICLVCGDYASGCHYGVVTCGSCKVFFKRAVEGQHNYLCAGRNDCIIDKIRRKNCPACRLQKCLQAGMNLGARKS | -0.105 ± 0.071 |
| SKICLVCGDLASGCHYGVVTCGSCKVFFKRAVEGQHNYLCAGRNDCIIDKIRRKNCPACRLQKCLQAGMNLGARKS | -0.028 ± 0.043 |
| SKICLVCGDDASGCHYGVVTCGSCKVFFKRAVEGQHNYLCAGRNDCIIDKIRRKNCPACRLQKCLQAGMNLGARKS | -0.018 ± 0.082 |
| SKICLVCGDAASGCHYGVVTCGSCKVFFKRAVEGQHNYLCAGRNDCIIDKIRRKNCPACRLQKCLQAGMNLGARKS | -0.063 ± 0.045 |
| SKICLVCGDGASGCHYGVVTCGSCKVFFKRAVEGQHNYLCAGRNDCIIDKIRRKNCPACRLQKCLQAGMNLGARKS | 0.043 ± 0.04 |
| SKICLVCGDMASGCHYGVVTCGSCKVFFKRAVEGQHNYLCAGRNDCIIDKIRRKNCPACRLQKCLQAGMNLGARKS | -0.177 ± 0.07 |
| SKICLVCGDSASGCHYGVVTCGSCKVFFKRAVEGQHNYLCAGRNDCIIDKIRRKNCPACRLQKCLQAGMNLGARKS | -0.03 ± 0.047 |
| SKICLVCGDCASGCHYGVVTCGSCKVFFKRAVEGQHNYLCAGRNDCIIDKIRRKNCPACRLQKCLQAGMNLGARKS | -0.221 ± 0.083 |
| SKICLVCGDKASGCHYGVVTCGSCKVFFKRAVEGQHNYLCAGRNDCIIDKIRRKNCPACRLQKCLQAGMNLGARKS | 0.016 ± 0.057 |
| SKICLVCGDTASGCHYGVVTCGSCKVFFKRAVEGQHNYLCAGRNDCIIDKIRRKNCPACRLQKCLQAGMNLGARKS | -0.032 ± 0.056 |
| SKICLVCGDIASGCHYGVVTCGSCKVFFKRAVEGQHNYLCAGRNDCIIDKIRRKNCPACRLQKCLQAGMNLGARKS | -0.188 ± 0.093 |
| SKICLVCGDWASGCHYGVVTCGSCKVFFKRAVEGQHNYLCAGRNDCIIDKIRRKNCPACRLQKCLQAGMNLGARKS | -0.012 ± 0.045 |
| SKICLVCLDEASGCHYGVVTCGSCKVFFKRAVEGQHNYLCAGRNDCIIDKIRRKNCPACRLQKCLQAGMNLGARKS | -0.08 ± 0.045 |
